Reference: the RNAGym collection of RNA variant scans (doi:10.1073/pnas.2313332121)

B1: TPR t1 (parent)
chain: GACCAAUCUGCCCUCAGAGCUCGAGAACAUCUUCGGAUGCAGAGGAGGCAGGCUUCGGUGGCGCGAUAGCGCCAACGUCCUCAACCUCCAAUGCAUCCCACCACAUGAUGAUGCCUGAAGAGCCUUGGUUUUUUG

Variants of: B1
Test: polymerase ribozyme fitness, log enrichment relative to wild type (log ratio); higher = more active; in vitro selection for triplet polymerase activity
Summary of the method: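 Fitness is a logarithmic measure of how a genotype enriched relative to the wild type, with replicate averages weighted by inverse variance. The logarithm uses base 2, and enrichment came from Illumina sequencing of input and output libraries. Those libraries were PCR-built, transcribed mutants of each subunit of a heterodimeric triplet polymerase ribozyme, passed through one triplicate in vitro selection round that included frozen incubation at −7 °C, gel excision of extended constructs and streptavidin-bead capture. Genotypes were kept only if they had ≥10 input reads and ≥1 read per output.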

Variant | polymerase ribozyme fitness (log ratio)
GACCAAUCUGCCCUCAGAGCUCGAGAACAUCUACGGAUGCAGAGGCGGCAGGCUUCGGUGACGCGAUAGCGCCAACGUCCUCAACCUCCAAUGCAUCCCACCACAUGAUGAUGCCUGAAGAGCCUUGGUUUUUUG [U33A A46C G61A] | -5.04
GACCAAUCUGCCCUCAGAGCUCGAGAACAUCUACGGAUGCAGAGGAGGCAGGCUUCGGUGGCGCGAUAGCGCCAACGUUCUCAACCUCCAAUGAAUCCCACCAUAUGAUGAUGCCUGAAAAGCCUUGGUUUUUUG [U33A C79U C94A C104U G120A] | -4.61
GACCAAUCUGCCCUCAGAGCUCGAGAACAUCUACGGAUGCAGAGGAGGCAGGCUUCGGAGUCGCGAUAGCGCCAACGUCCUCAACCUCCAAUGCAUCCCACCACAGGAUGAUGCCUGAAGAGCCUUGGUUUUUUG [U33A U59A G61U U106G] | -5.96
GACCAAUCUGCCCUCAGAGCUCGAGAACAUCCUCGGAUGCAGAGGAUUCAGGCUUCGGUGGCGCGAUAGCGCCAAUGUCCUCAACCUCCAAUGCAUCCCACCACAUGAUGAGGCCUGAAGAGCCUUGGUUUUUUG [U32C G47U G48U C76U U112G] | -4.6
GACCAAUCUGCCCUCAGAGCUCGAGAACAUCGUCGGAUGCAGAGGAGGCAGGCUUCGGUGGCGCGAUAGCGUCAACGUCCUCAACCUCCAAUGCAUCCCACUACAUGAUGAUACCUGAAGAGCCUUGGUUUUUUG [U32G C72U C102U G113A] | -7.34
GACCAAUCUGCCCUCAGAGCUCGAGAACAUCCUCGGAUGCAGAGGAGGCAGGCUUCGGUGGCGCGAUAGCUCCAACGUCCUCAACCUCCAAUGCAUCCCACCACAUGAUGAUGCCUGAAGAGCCUUGGUUUUUUG [U32C G71U] | -1.13
GACCAAUCUGCCCUCAGAGCUCGAGAACAUCUACGGAUGCAGAGGAGGCAGGCUUCGGUGGCGCGAUAGCGCCAACGUCCUCAACCUGCAAUGCAUCCCACCACAUGAUGAUGCCUGAAGAGCCUUGGUUUUUUG [U33A C88G] | -4.9
GACCAAUCUGCCCUCAGAGCUCGAGAACAUCUACGGAUGCAGAGGAGGCAGGCUUCGGUGGCGCGAUAGCGCCAACGUCCUCAACCACCAAUGCAUCCCACCACAUGAUGAUGCCUGAAGAGCCUUGGUUUUUUG [U33A U87A] | -4.12
GACCAAUCUGCCCUCAGAGCUCGAGAACAUCCUCGGAUGCAGAGGAGGCAGGCCUCGGUGGCGCGAUAGCCCCAACGUCCUCAACCUCCAAUGCCUCCCACCACAUGAUGAUGCCUGAAGAGCCUUGGUUUUUUG [U32C U54C G71C A95C] | -3.01
GACCAAUCUGCCCUCAGAGCUCGAGAACAUCCUCGGAUGCAGAGGAGGCAGGCUUCGGUGGCACGAUAGCGCCUACGUCCUCAACCUCCAAUGCAUCCCACCACAUGAUGAUGCCUGAAGAGCCUUGGUUUUUUG [U32C G63A A74U] | -3.86
GACCAAUCUGCCCUCAGAGCUCGAGAACAUCGUCGGUUGCAGAGGAGGCAGGCUUCGGUGGCGCGAUAGCGCUAACGUCCUCAACCUCCAAUGCAUCCCACCACAUGAUGAUACCUGAAGAGCCUUGGUUUUUUG [U32G A37U C73U G113A] | -6.09
GACCAAUCUGCCCUCAGAGCUCGAGAACAUCCUCGGAUGCAGAUGAGGCAGGCUUCGGUGGCGCGAUAGCGCCAACGUCCUCAACCUCCAAGGCAUCCCACCACAUGAUGAUGCCUGUAGAGCCUUGGUUUUAUG [U32C G44U U92G A118U U133A] | -3.79
GACCAAUCUGCCCUCAGAGCUCGAGAACAUCUACGUAUGCAGAGGAGGCAGGCUUCGGUGGCGCGAUAUCGCCAACGUCCUCAACCUCCAAUGCAUCCGACCACAUGAUGAUGCCUGAAGAGCCUUGGUUUUUUG [U33A G36U G69U C99G] | -5.44
GACCAAUCUGCCCUCAGAGCUCGAGAACAUCUACGGAUGCAGAGAAGGCAGGCUUCGGUGGCCCGAUAGCGCCAACGUCCUCAACCUCCAAUGCAUCCCACCACAUGAUGAUGCCUGAAGAGCCUUGGUUUUUUG [U33A G45A G63C] | -5.54
GACCAAUCUGCCCUCAGAGCUCGAGAACAUCCUCGGAUGCAGAGGAGGCAGGCUUCGGUAGCGCGAUAGCGCCAACGUCCUCAACCUCCAAUGCAUACCACCACAUGAUGAUGCCUGAAGAGCUUUGGUUAUUUG [U32C G60A C97A C124U U131A] | -4.71
GACCAAUCUGCCCUCAGAGCUCGAGAACAUCCUCGGAUGCAGAGGAGGCAGUCUUCGGUGGCGCGAUAGCGCCAACUUACUCAACCUCCGAUGCAUCCCACCACAUGAUGAUGCUUGAAGAGCCUAGGUUUUUUG [U32C G52U G77U C79A A90G C115U U126A] | -5.37
GACCAAUCUGCCCUCAGAGCUCGAGAACAUCGUCGGAUACAGAGGAGGCAGGCUUCGGUGGCGCGAUAGCGCCAACGUCCUCAACCUCCAAUGCAUCCCACCACACGAUGAUGCCUGAAGAGCCUUGGUUUUUUG [U32G G39A U106C] | -4.98
GACCAAUCUGCCCUCAGAGCUCGAGAACAUCCUCGGAUGCAGAGGAGGCAGGCUUCGGUGGCGCGAUAGCGCCAACGUCCUCAACCUCCAAUGCAUCCCACCACAUGAUGAAGCCUGAAGAGCCUUGGUUUUUUG [U32C U112A] | 1.49
GACCAAUCUGCCCUCAGAGCUCGAGAACAUCGUCGGAUGCAGAGGAGGCAGGCUUCGGUGGCGCGAUAGGGCCAACGUCCUCAACCUCCAAUGCAUCGCACCACAUGAUGAUGCCUGAAGAGCCUUGGUUUUUUG [U32G C70G C98G] | -6.14
GACCAAUCUGCCCUCAGAGCUCGAGAACAUCGUCGGAUGCAGAGGAGGCAGGCUUCGGUGGCGCGAUAGCGCCAACGUCCUCAACCUCCAAUGCAUGCCACCACAUGAUGAUGCCUGAGGAGCCUUGGUUUUUUG [U32G C97G A119G] | -6.08
GACCAAUCUGCCCUCAGAGCUCGAGAACAUCUCCGGAUGCAGAGGAGGCAGGCUUCGGUGGCGCGAUAGCGCCAACGUGCUCAACCUCCAAUGCAUCCCACCACAUGAUGUUGCCUGAAGAGCCUUGGUUUUUUG [U33C C79G A111U] | -7.17

Variant | polymerase ribozyme fitness (log ratio)
GACCAAUCUGCCCUCAGAGCUCGAGAACAUCUCCGGAUGCAGAGGAGGCAGGCUUCGGUGGCGUGAUAGCGCCAACGUCCUCAACCUCCAAUGCAUCCCACCACAUGAUGAUGCCUGAAGAGCCUUGGUUUUUUG [U33C C64U] | -3.44
GACCAAUCUGCCCUCAGAGCUCGAGAACAUCCUCGGAUGCAGAGGAGGCAGGCUUCGGUGGCGCGAUAGCACUAACGUCCUCAACCUCCAAUGCAUCCCACCACAUGAUGAUGCCUGAAGAGCCUUGGUUUUUUG [U32C G71A C73U] | -1.78
GACCAAUCUGCCCUCAGAGCUCGAGAACAUCGUCGGAUGCAGAGGAGGCAGGCUUCGGUGGCGCGAUAGCGCCAACGUCCUCAACCUCCAAUGCAUCCCACCACAUGAUGAUGCCUGAGGAGCCUUGGUUUUUUG [U32G A119G] | -5.95
GACCAAUCUGCCCUCAGAGCUCGAGAACAUCGUCGGAUGCAGAGGAGGCAGGCUUCGGUGGCGCGAUAGCGCCAACGUCCUCAACCUCCAAUGCAUCCCACCACAUGAUGAUGCAUGAAGAGCCUUGGUUUUUUG [U32G C115A] | -5.41
GACCAAUCUGCCCUCAGAGCUCGAGAACAUCGUCGGAUGCAGAGGAGGCAGGCUUCGGUGGCGCGAUUGCGCCAACGUCAUCAACCUCCAAUGCAUCCCAUCACAUGAUGUUGCCUGAAGAGCCUGGGUUUUUUG [U32G A68U C80A C101U A111U U126G] | -6.67
GACCAAUCUGCCCUCAGAGCUCGAGAACAUCGUCGGAUGCAGAGGAGGCAGGCUUCGGUGGCGCGAUAGCGCCAACGUCCUUAACCUCCAAUGCAUCCCACCACAUGAUGAUGCCUGAAGCGCCUUGGUUUUUUG [U32G C82U A121C] | -6.01
GACCAAUCUGCCCUCAGAGCUCGAGAACAUCCUCGGAUGCAGAGGAGGCAGGCUUCGGUGGCCCGAUAGCGCCAACGUCCUCAACCUCCAAUGCAUCCCACCACAUGAUGAUGCCUGAAGAGCCUUGGUUUUUUG [U32C G63C] | -0.346
GACCAAUCUGCCCUCAGAGCUCGAGAACAUCUACGGCUGCAGAGGAGGCAGGCUUCGGUGGCGCGAUAGCGCCAACGUCCUCAACCUCCAAUGCAUCCCACCACAUGAUGAUGCCUGAAGAGCCUUGGUUUUUUG [U33A A37C] | -4.7
GACCAAUCUGCCCUCAGAGCUCGAGAACAUCCUCGGAUGCAGAGGAGGCAGGCUUCGGUGACGCGAGAGCGCCAACGUCCUUAACCUCCAAUGCAUCCCACCACAUGAUGAUGCCUGAAGAGCCUUGGUUUUUUG [U32C G61A U67G C82U] | -7.29
GACCAAUCUGCCCUCAGAGCUCGAGAACAUCCUCGGAUGCAGAGGAGGCAGGCUUCGGUGUCGCGAUAGCGCCAACGUCCUCAAGCUCCAAUGCAUCCCACCACAUGAUGAUGCCUGAAGAGCCUUGGUUUUUUG [U32C G61U C85G] | -3.56
GACCAAUCUGCCCUCAGAGCUCGAGAACAUCCUCGGAUGCAGAGGAGGCAGGCUUCGGUGGCGCGAUAGCGCCAACGUCCUCAACCUCCAAUGCAUCCCACCACAUGAUGAUUCCUGAAGAGCCUUGGUUUUUUG [U32C G113U] | -2.9
GACCAAUCUGCCCUCAGAGCUCGAGAACAUCUACGGAUGCAGAGGAGGCAGGCUUCGGUGGCGCGAUAGCGUCAACGUCCUCAACCUCCAAUGCAUCCCACCACAUGAUGAUGCCUGAAGAGCCUUGGUUUUUUG [U33A C72U] | -4.34
GACCAAUCUGCCCUCAGAGCUCGAGAACAUCCUCGGAUGCAGAAGAGGCAGGCUUCGGUGUCGCGAUAGCGCCAACGUCCUCAACCUCCAAUGCAUCCCACCACAUGAUGAUGCCUGAAGAGCCUUGGUUGUUUG [U32C G44A G61U U131G] | -0.948
GACCAAUCUGCCCUCAGAGCUCGAGAACAUCCUCGGAUGCAGAGGAGGCAGGCUUCGGUGGCGCGAUACCGCCAACGUCUUCAACCUCCAAUGCAUCCCAUUACAUGAUGAUGCCUGAAGAGCCUUGGUUUUUUG [U32C G69C C80U C101U C102U] | -5.78
GACCAAUCUGCCCUCAGAGCUCGAGAACAUCUACGGAUGCAGAGGUGGCAGGCUUCGGUGGCGCGAUAGCGCCAACGUCCUCAACCUCCAAUGCAUCCCACCACAUGAUGAUGCCUGAAGAGCCUUGGUUUUUUG [U33A A46U] | -4.71
GACCAAUCUGCCCUCAGAGCUCGAGAACAUCCACGGAUGCAGAGGAGGCAGGCUUCGGUGGCGCGAUAGCGCCAACGUCCUCAACCUCCAAUGCAUCCCACCAAAUGAGGAUGUCUGAAGUCCCUUGGUUUUUUG [U32C U33A C104A U109G C114U A121U G122C] | -5.8
GACCAAUCUGCCCUCAGAGCUCGAGAACAUCUACGGAUGCAGAGGAGGCAGGCUUCGGUGGCGCGGUAGCGCCAACGUCCUCAACCUCCAAUGCAUCCCACCACAUGAUGAUGCCUGAAGAGACUUGGUUUUUUG [U33A A66G C123A] | -6.2
GACCAAUCUGCCCUCAGAGCUCGAGAACAUCGUCGGAUGCAGAGGAGGAAGGCUUCGGUGGCGCGAUAGUGCCGACGUCCUCGACCUCCAAUCCAUCCCACCACAUGAUGAUGACUGAAGAGCCGUGGUUUUUUG [U32G C49A C70U A74G A83G G93C C114A U125G] | -7.4
GACCAAUCUGCCCUCAGAGCUCGAGAACAUCCUCGGAUGCAGAGGAGACAGUCUUCGGUGGCGCGUUAGCGCCAACGUCCUCAACCUCCAAUGCAUCCCACCACAUGAUGAUGACUGAAGAGCCUUGGUUUUUUG [U32C G48A G52U A66U C114A] | -5.75
GACCAAUCUGCCCUCAGAGCUCGAGAACAUCCUCGGAUGCAGAGGAGGCAGGCUUCGGUCGCGCGAUAGCGCCACCGUGCUCAACCUCCAAUGCAUCCCACCACAUGAUGAUGCCUGUAGAGCCUUGGUUUUUUG [U32C G60C A75C C79G A118U] | -1.88
GACCAAUCUGCCCUCAGAGCUCGAGAACAUCUACGUAUGCAGAGGAGGCAGGCUUCGGUGGCGCGAUAGCGCCAACGUCCUCAACCUCCAAUGCAUCCCACCACAUGAUGAUGCCUGAAGAGCCUUGGUUUUUUG [U33A G36U] | -4.74
